In PMC7515726 (Nucleic Acids Research, 2020):

Molecular target: FLAG-hH2A.D wild-type nucleosome, 147 bp 601 DNA (ELYS pulldowns) (human, UniProt P20671;P62807;Q71DI3;P62805)
Experiment: pull-down

B1: MBP-His6-TEV-ELYS^C, C-terminal fragment of human ELYS (2157-2275) (domain or fragment)
chain: SSQFVISPPALRSRQKNTSNKNKLEDELKDDAQSVETLGKPKAKRIRTSKTKQASKNTEKESAWSPPPIEIRLISPLASPADGVKSKPRKTTEVTGTGLGRNRKKLSSYPKQILRRKML
B1: binds.
